Patent publication US8440430, “Modified dicer polypeptide and methods of use thereof” (The Regents of the University of California)

T1: hWalker human Dicer (K70A) (Homo sapiens, UniProt Q9UPY3 SEQ:1-1922)
T1 chain: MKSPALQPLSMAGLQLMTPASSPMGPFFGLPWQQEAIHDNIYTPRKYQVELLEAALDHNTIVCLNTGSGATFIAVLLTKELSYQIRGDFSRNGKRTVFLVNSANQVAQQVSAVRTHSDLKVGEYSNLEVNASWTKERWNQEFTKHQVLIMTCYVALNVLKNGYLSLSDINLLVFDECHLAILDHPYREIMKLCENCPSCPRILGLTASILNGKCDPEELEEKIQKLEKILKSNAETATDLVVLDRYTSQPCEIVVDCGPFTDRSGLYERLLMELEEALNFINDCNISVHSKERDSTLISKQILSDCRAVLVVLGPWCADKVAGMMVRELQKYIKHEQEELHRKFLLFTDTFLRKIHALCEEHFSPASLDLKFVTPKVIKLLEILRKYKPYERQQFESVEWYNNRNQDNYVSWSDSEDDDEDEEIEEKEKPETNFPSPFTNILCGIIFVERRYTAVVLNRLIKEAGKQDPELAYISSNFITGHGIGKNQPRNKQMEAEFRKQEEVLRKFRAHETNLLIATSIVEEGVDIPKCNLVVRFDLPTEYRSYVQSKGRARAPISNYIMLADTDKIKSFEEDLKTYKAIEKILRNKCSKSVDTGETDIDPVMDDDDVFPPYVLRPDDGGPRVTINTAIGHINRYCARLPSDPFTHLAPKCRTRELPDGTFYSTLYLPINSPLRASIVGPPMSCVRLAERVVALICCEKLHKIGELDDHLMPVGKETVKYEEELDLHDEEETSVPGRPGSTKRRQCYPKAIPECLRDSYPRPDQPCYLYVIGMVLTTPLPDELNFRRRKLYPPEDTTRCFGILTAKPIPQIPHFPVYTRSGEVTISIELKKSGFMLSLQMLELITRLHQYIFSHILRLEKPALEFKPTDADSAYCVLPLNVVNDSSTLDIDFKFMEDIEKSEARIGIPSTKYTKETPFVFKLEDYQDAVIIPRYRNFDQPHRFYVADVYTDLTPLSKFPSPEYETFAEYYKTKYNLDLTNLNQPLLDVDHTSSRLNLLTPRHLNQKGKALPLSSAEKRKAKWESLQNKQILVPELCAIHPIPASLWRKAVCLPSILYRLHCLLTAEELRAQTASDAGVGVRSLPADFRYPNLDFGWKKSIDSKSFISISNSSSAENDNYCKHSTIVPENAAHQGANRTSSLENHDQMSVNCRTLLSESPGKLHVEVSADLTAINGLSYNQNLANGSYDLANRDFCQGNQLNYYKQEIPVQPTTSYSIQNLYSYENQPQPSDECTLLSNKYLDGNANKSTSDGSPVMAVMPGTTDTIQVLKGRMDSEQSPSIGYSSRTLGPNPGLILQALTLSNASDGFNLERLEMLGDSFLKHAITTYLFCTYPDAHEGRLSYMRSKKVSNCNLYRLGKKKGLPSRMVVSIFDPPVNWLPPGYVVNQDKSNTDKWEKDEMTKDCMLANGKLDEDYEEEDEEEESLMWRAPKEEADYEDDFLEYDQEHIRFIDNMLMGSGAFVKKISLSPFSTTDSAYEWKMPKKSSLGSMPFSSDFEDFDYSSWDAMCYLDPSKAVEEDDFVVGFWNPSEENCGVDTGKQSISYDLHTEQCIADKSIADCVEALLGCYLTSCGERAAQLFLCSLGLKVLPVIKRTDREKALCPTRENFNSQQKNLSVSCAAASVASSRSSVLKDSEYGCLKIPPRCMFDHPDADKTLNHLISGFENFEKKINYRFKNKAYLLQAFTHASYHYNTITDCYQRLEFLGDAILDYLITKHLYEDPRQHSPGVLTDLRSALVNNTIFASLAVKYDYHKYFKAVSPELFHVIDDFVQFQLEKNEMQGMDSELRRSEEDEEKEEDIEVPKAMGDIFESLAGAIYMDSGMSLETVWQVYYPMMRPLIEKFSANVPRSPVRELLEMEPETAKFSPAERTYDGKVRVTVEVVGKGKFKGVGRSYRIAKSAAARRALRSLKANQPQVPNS


How the values were obtained:
ΔdsRBD human Dicer = ΔdsRBD human Dicer (Homo sapiens, UniProt Q9UPY3 SEQ:1-1922, del1844-1922); test: filter; within three-fold of full-length; dsRBD deletion did not significantly affect binding; 5 mM EDTA; settings: tags: N-terminal His6 removed by site-specific protease, baculovirus/Sf9
Experimental: A serial dilution of proteins were incubated in a buffer containing 20 mM Tris-Cl (pH 7.5), 25 mM NaCl, 5 mM EDTA, 1 mM dithiothreitol (DTT), 1% glycerol and ~0.5-1 nM (1500 c.p.m.) of ^32P-labeled duplex RNA substrate (one strand was labeled) at room temperature for 60 min […] After this incubation, 25 µl of each reaction were used for dot-blotting, which was conducted in a dot-blot apparatus equipped with 3 membranes of Tuffryn, Protran and Nytran (from top to bottom). After dried, the bound (on Protran) or free (on Nytran) RNAs were detected and quantified with Phosphoimager (GE Healthcare). Percentage of bound RNAs was calculated by 100 multiplied by the ratio of radioactivity (volumes) detected on the Protran membrane over the total input volumes (radioactivity). The bound RNAs (%) (Y-axle) were plotted against protein concentrations (X-axle). K_d was determined by global fitting to the equation of kobsd = (kmax ×[Dicer])(K_{1/2} + [Dicer])^-1, here $kobsd$ is the observed rate constant at a particular protein concentration, $kmax$ is the maximal rate constant with saturating protein, and K_{1/2} (or K_d) is the protein concentration that provides half the maximal rate. Curve fitting was conducted with KleidaGraph (Synery Software).
RNA. […] These values are similar to those measured previously (Provost et al, 2002; Vermeulen et al, 2005).

[1] = biological target: T1, hWalker human Dicer (K70A); test: filter; within three-fold of full-length; 5 mM EDTA; exact Kd only in figure; settings: tags: N-terminal His6 removed by site-specific protease, baculovirus/Sf9
Experimental: After dried, the bound (on Protran) or free (on Nytran) RNAs were detected and quantified with Phosphoimager (GE Healthcare). Percentage of bound RNAs was calculated by 100 multiplied by the ratio of radioactivity (volumes) detected on the Protran membrane over the total input volumes (radioactivity). The bound RNAs (%) (Y-axle) were plotted against protein concentrations (X-axle). K_d was determined by global fitting to the equation of kobsd = (kmax ×[Dicer])(K_{1/2} + [Dicer])^-1, here $kobsd$ is the observed rate constant at a particular protein concentration, $kmax$ is the maximal rate constant with saturating protein, and K_{1/2} (or K_d) is the protein concentration that provides half the maximal rate. Curve fitting was conducted with KleidaGraph (Synery Software).
RNA. […] These values are similar to those measured previously (Provost et al, 2002; Vermeulen et al, 2005). […] The protein lacking both the DExD/H-box domain and the dsRBD (2DD) bound ~3-4 fold more weakly to either substrate relative to full-length Dicer (FIG. 3A-C). It is possible that this severely truncated protein is generally destabilized, or that the DExD/H-box domain plays a small but measurable role in substrate binding.

[2] = label: 5'-32P on one strand, perfect duplex with 2-nt 3' overhangs on both ends

Sequence of ΔdsRBD human Dicer (Q9UPY3 1-1843, stated change not applied): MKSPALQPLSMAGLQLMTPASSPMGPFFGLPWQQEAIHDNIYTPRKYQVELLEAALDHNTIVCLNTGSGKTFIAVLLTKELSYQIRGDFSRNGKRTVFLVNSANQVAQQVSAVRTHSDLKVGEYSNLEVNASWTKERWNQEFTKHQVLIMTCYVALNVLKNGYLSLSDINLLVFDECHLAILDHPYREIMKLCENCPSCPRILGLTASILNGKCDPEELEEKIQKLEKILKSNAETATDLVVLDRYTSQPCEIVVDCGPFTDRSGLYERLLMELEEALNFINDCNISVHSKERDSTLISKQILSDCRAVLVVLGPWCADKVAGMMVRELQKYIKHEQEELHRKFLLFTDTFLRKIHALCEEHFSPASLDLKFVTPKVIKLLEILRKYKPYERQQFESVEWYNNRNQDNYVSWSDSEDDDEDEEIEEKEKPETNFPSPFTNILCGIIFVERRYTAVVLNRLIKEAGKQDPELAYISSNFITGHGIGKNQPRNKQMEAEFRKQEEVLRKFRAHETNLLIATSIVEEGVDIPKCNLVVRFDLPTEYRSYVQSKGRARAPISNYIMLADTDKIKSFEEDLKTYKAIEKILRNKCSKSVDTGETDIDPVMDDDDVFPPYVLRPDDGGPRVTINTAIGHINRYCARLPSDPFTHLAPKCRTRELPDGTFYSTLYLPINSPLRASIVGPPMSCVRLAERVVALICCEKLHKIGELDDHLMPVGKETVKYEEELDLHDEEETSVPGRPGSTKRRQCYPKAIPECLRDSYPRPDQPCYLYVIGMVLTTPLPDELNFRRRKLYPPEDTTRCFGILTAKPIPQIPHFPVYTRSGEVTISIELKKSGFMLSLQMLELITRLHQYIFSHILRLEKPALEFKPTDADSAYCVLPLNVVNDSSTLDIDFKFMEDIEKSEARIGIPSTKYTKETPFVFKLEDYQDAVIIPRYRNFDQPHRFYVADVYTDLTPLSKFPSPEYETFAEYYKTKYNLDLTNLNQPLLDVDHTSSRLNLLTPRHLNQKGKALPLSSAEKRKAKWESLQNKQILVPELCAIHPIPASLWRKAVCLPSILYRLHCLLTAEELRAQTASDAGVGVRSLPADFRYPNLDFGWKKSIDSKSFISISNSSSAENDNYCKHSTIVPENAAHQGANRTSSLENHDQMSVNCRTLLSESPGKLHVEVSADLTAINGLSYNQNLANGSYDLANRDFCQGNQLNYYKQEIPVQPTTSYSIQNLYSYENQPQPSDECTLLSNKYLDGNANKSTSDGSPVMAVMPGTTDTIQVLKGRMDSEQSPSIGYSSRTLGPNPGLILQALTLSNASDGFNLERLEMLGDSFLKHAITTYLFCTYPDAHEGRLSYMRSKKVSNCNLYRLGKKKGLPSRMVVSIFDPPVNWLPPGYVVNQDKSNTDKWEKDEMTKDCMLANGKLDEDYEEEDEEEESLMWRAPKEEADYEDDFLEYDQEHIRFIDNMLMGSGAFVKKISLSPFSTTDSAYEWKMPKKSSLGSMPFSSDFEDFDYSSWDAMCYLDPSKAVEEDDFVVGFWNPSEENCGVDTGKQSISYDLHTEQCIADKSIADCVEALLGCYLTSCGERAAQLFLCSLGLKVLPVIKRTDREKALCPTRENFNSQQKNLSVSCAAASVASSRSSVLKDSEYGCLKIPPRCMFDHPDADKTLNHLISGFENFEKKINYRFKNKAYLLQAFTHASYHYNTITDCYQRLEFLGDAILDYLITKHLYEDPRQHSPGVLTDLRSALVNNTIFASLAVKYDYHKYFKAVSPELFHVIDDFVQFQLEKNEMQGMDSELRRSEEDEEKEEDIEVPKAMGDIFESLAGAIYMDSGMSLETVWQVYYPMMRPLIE

| Binder | Kd relative to full-length Dicer (ΔdsRBD human Dicer; [2]) | Kd relative to full-length Dicer (fold) [1, 2] | Kd relative to full-length Dicer (ΔdsRBD human Dicer; label: 5'-32P, hairpin) | Kd relative to full-length Dicer (fold) ([1]; label: 5'-32P, hairpin) |
| --- | --- | --- | --- | --- |
| 37ab duplex RNA (dsRNA) RNA 1: UGAGGUAGUAGGUUGUAUAGUUUGAAAGUUCACGAUU RNA 2: UCGUGAACUUUCAAACUAUACAACCUACUACCUCAUU | ≤ 3 fold of full-length Kd (75 nM) | ≤ 3 fold of full-length Kd (75 nM) | – | – |
| pre-hlet-7 hairpin RNA (ssRNA) RNA: UGAGGUAGUAGGUUGUAUAGUUUUAGGGUCACACCCACCACUGGGAGAUAACUAUACAAUCUACUGUCUUACC | – | – | ≤ 3 fold of full-length Kd (30 nM) | ≤ 3 fold of full-length Kd (30 nM) |
